Measurements reported in patent publication US20250319190A1, “APOE LIPOPROTEIN SYSTEMS” (Kisbee Therapeutics, Inc., priority 2022, published 2025).
Residue numbers refer to the chain shown, from its start.

How the values were obtained:
NPC1 models = conditions: cited from earlier work
NPC1 = conditions: administered directly to the CNS; cited from earlier work
[1] = tested on: mouse model of tauopathy with Parkinsonism; conditions: trehalose consumption; cited from earlier work
[2] = tested on: cellular model for Huntington's disease; conditions: in vitro treatment; cited from earlier work
[3] = DMPC liposome clearance by lipid-free apolipoproteins (A325); type: biochemical; conditions: lipid-free apolipoprotein, protein:lipid 1:75, A325 over 90 minutes
Method: To assess the ability of lipid-free apolipoproteins to remodel DMPC liposomes, aliquots of purified polypeptide were allowed to thaw at 2-8° C. Aqueous 0.5 M tris(2-carboxyethyl)phosphine (TCEP) solution was then added to the polypeptide solution (1.5 μL per 200 μg polypeptide) to reduce any disulfide bonds that formed during storage. After incubation for >30 minutes at 2-8° C., the mixture was buffer exchanged into PBS (2 mM KH2PO4, 10 mM Na2HPO4, 140 mM NaCl, 3 mM KCl, pH 7.4) using a spin desalting column (ThermoFisher) following the manufacturer's instructions. After buffer exchange, the concentration of the polypeptide was determined by measuring the sample's absorbance at 280 nm (A280). In parallel, a mixture of DMPC (1,2-dimyristoyl-sn-glycero-3-phosphocholine) in detergent-free lipid buffer (20 mM Tris HCl, 100 mM NaCl, pH 7.4) was prepared from neat DMPC powder and adjusted to about 10 mM.
The polypeptide and DMPC solutions were combined in technical duplicate or triplicate in a UV-transparent 96-well plate (Corning) such that the molar ratio of protein:lipid was 1:75. The absorbance of the wells at 325 nm was measured every minute for 90 minutes.
Polypeptides PP124 (SEQ ID NO: 876), PP125 (SEQ ID NO: 877), PP126 (SEQ ID NO: 878), PP127 (SEQ ID NO: 879), PP128 (SEQ ID NO: 880), and PP129 (SEQ ID NO: 881) were expressed, harvested, and purified using the methods described herein (see, e.g., Example 1). The ability of these novel apolipoprotein variants to interact with and remodel DMPC liposomes was assessed to serve as a simplified proxy of the disc assembly process. The rate at which apolipoproteins achieve such remodeling is related to the facility with which they form the lipoprotein systems described in the present invention.

[4] = biological target: human low-density lipoprotein receptor (LDLR) protein (human, UniProt P01130 22-788, limits assumed); assay: SPR (Biacore 4000), human LDLR captured on a Protein A chip, lipoprotein as analyte, 1:1 model fit
Method: (§1) A surface plasmon resonance (SPR) method was developed to assess the binding response between the lipoprotein samples and the low-density lipoprotein receptor (LDLR). This interaction is relevant to the discs because the LDLR/APOE pathway plays a pivotal role in cholesterol homeostasis and lipid metabolism. Experiments were performed on a Biacore 4000 with human LDLR protein captured on a Protein A chip. For the binding studies, lipoprotein samples were diluted and tested in a 3-fold dilution series. Samples were injected for 2-3 minutes at 30 μL/min and the dissociation phase was monitored for 5-10 minutes. Response data were processed by subtracting the data from a reference surface (i.e., without receptor captured) and a buffer injection. The processed data were globally fit to a 1:1 interaction model to extract estimates of the binding constants.
Target sequence in this assay (P01130 22-788 limits assumed): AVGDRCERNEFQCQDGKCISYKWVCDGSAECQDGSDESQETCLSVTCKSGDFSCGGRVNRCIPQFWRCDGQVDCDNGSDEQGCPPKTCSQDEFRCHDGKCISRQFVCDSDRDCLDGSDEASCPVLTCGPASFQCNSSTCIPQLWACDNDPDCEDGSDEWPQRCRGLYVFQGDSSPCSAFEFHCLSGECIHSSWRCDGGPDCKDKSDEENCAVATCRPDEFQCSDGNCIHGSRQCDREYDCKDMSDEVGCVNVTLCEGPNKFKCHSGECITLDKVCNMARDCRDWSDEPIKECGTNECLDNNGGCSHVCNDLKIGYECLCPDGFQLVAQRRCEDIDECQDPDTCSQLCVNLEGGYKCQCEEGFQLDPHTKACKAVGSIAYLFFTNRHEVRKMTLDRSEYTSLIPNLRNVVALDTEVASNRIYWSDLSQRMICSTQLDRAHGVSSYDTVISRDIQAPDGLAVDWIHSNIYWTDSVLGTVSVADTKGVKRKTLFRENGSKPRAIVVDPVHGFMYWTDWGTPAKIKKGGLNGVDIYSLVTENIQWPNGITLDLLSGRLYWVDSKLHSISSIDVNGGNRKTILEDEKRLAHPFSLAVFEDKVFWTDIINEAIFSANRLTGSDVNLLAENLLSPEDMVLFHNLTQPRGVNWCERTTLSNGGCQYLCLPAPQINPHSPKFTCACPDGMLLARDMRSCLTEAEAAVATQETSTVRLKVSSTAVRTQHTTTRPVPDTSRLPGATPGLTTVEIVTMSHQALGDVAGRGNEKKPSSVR

[5] = biological target: T1, human low-density lipoprotein receptor (LDLR) protein (human, UniProt P01130 22-788, limits assumed); assay: SPR (Biacore 4000), human LDLR captured on Protein A chip
T1 construct: The receptor was captured on a Protein A chip in the SPR assay
Method: as §1
T1 sequence (P01130 22-788 limits assumed): as above

[6] = tested on: experimental models of stroke, global brain ischemia, prion diseases, AD, PD, HD, ALS; conditions: intracerebral administration; cited from earlier work

2-hydroxypropyl-β-cyclodextrins [HPβCD]
crossing of the blood-brain barrier (NPC1 models; mouse, in vivo): does not cross the blood-brain barrier in significant amounts
CNS manifestations (NPC1 models; subcutaneously or intraperitoneally, very high doses): can moderately impact CNS manifestations
efficacy (NPC1): far greater HPβCD efficacy at much lower doses

OC[C@H]1O[C@H](O[C@H]2O[C@H](CO)[C@@H](O)[C@H](O)[C@H]2O)[C@H](O)[C@@H](O)[C@@H]1O [trehalose]
anxiety-related behavior [1]: Reduced anxiety-related behavior
motor function [1]: improved motor function
tau pathology [1]: decreased tau pathology
polyglutamine aggregates and cell survival [2]: decreased polyglutamine aggregates and/or improved cell survival

PP1: natural human APOE isoform APOE2; SEQ ID NO: 267, 268 in b698
Rate of DMPC clearance Ka [3]: 0.0032 s⁻¹

PP2: natural human APOE isoform APOE 3; SEQ ID NO: 268, 267 in b698
Rate of DMPC clearance Ka [3]: 0.0145 s⁻¹

B1: LPS1: lipoprotein system of PP9 and POPC, apolipoprotein:lipid 1:105 (other)
chain: KVEQAVETEPEPELRQQTEWQSGQRWELALGRFWDYLRWVQTLSEQVQEELLSSQVTQELRALMDETMKELKAYKSELEEQLTPVAEETRARLSKELQAAQARLGADMEDVCGRLVQYRGEVQAMLGQSTEELRVRLASHLRKLRKRLLRDADDLQKRLAVYQAGAREGAERGLSAIRERLGPLVEQGRVRAATVGSLAGQPLQERAQAWGERLRARMEEMGSRTRDRLDEVKEQVAAKLEEQAQQIRLQAEAFQARLKPLVEDMQRQWAGLVEKVQAAVGTSAAPVPSDNH
notes: Discoidal lipoprotein particle with POPC; Engineered truncation variant of APOE3; also called PP9/POPC
Kd [4]: ~0.33 nM

B2: LPS2: lipoprotein system of PP10 and POPC, apolipoprotein:lipid 1:100 (other)
chain: KVEQAVETEPEPELRQQTEWQSGQRWELALGRFWDYLRWVQTLSEQVQEELLSSQVTQELRALMDETMKELKAYKSELEEQLTPVAEETRARLSKELQAAQARLGADMEDVCGRLVQYRGEVQAMLGQSTEELRVRLASHLRKLRKRLLRDADDLQKRLAVYQAGAREGAERGLSAIRERLGDRLDEVKEQVAEVRAKLEEQAQQIRLQAEAFQARLKSWFEPLVEDMQRQWAGLVEKVQAAVGTSAAPVPSDNH
notes: Discoidal lipoprotein particle with POPC; Engineered truncation variant of APOE3; also called PP10/POPC
Kd [4]: ~0.385 nM

B3: LPS3: lipoprotein system of PP11 and POPC, apolipoprotein:lipid 1:90 (other)
chain: KVEQAVETEPEPELRQQTEWQSGQRWELALGRFWDYLRWVQTLSEQVQEELLSSQVTQELRALMDETMKELKAYKSELEEQLTPVAEETRARLSKELQAAQARLGADMEDVCGRLVQYRGEVQAMLGQSTEELRVRLASHLRKLRKRLLRDADDLQKRLAVYQAGAREGAERGLSAIRERLGDRLDEVKEQVAAKLEEQAQQIRLQAEAFQARLKPLVEDMQRQWAGLVEKVQAAVGTSAAPVPSDNH
notes: Discoidal lipoprotein particle with POPC; Engineered truncation variant of APOE3; also called PP11/POPC
Kd [4]: ~0.125 nM

B4: LPS1 lipoprotein system (PP9 with POPC, polypeptide:lipid 1:105) (other)
chain: B1 chain
notes: Discoidal lipoprotein particle with POPC at 1:105 mol/mol; also called PP9/POPC
fold difference in KD compared to POPC lipoproteins with PP2 or PP28 [5]: ≤ 5 fold

B5: LPS2 lipoprotein system (PP10 with POPC, polypeptide:lipid 1:100) (other)
chain: B2 chain
notes: Discoidal lipoprotein particle with POPC at 1:100 mol/mol; also called PP10/POPC
fold difference in KD compared to POPC lipoproteins with PP2 or PP28 [5]: ≤ 5 fold

B6: LPS3 lipoprotein system (PP11 with POPC, polypeptide:lipid 1:90) (other)
chain: B3 chain
notes: Discoidal lipoprotein particle with POPC at 1:90 mol/mol; also called PP11/POPC
fold difference in KD compared to POPC lipoproteins with PP2 or PP28 [5]: ≤ 5 fold

B7: BDNF: brain-derived neurotrophic factor, a neurotherapeutic growth factor (protein, UniProt P23560 19-247, looked up)
Neurotrophic factor BDNF …: APMKEANIRGQGGLAYPGVRTHGTLESVNGPKAGSRGLTSLADTFEHVIEELLDEDQKVRPNEENNKDADLYTSRVMLSSQVPLEPPLLFLLEEYKNYLDAANMSMRVRRHSDPARRGELSVCDSISEWVTAADKKTAVDMSGGTVTVLEKVPVSKGQLKQYFYETKCNPMGYTKEGCRGIDKRHWNSQCRTTQSYVRALTMDSKKRIGWRFIRIDTSCVCTLTIKRGR
neuroprotection [6]: neuroprotective

B8: PP124: novel truncated apolipoprotein variant SEQ ID NO: 876 (protein)
chain: B1 chain with V236E
Rate of DMPC clearance Ka [3]: 0.0221 s⁻¹

B9: PP125: novel truncated apolipoprotein variant SEQ ID NO: 877 (protein)
chain: B1 chain with R136S, V236E
Rate of DMPC clearance Ka [3]: 0.0247 s⁻¹

B10: PP126: novel truncated apolipoprotein variant SEQ ID NO: 878 (protein)
chain: B3 chain
Rate of DMPC clearance Ka [3]: 0.0383 s⁻¹

B11: PP127: novel truncated apolipoprotein variant SEQ ID NO: 879 (protein)
chain: B3 chain with V192E
Rate of DMPC clearance Ka [3]: 0.0058 s⁻¹

B12: PP128: novel truncated apolipoprotein variant SEQ ID NO: 880 (protein)
chain: B3 chain with R136S, V192E
Rate of DMPC clearance Ka [3]: 0.0149 s⁻¹

B13: PP129: novel truncated apolipoprotein variant SEQ ID NO: 881 (protein)
chain: B3 chain with R136S, V192E, L228Q
Rate of DMPC clearance Ka [3]: 0.0068 s⁻¹
